According to patent publication US8691772B2, “HSP60, HSP60 peptides and T cell vaccines for immunomodulation” (Yeda Research and Development Co. Ltd., priority 2005, dated 2014):

Legend:
human T cells = test: T-cell migration assay towards SDF-1α, human T cells; assay type: cell-based; conditions: 1 hr pre-incubation
From the text: Human cells. […] Human umbilical cord vein endothelial cells (HUVEC) were isolated from umbilical cord veins and cultured as described (Ponomaryov et al., 2000). Primary cultures were serially passaged, and passages 2 and 3 were taken for experiments.
T-cell migration assay. Migration of ^51[Cr]-labeled human and mouse T cells through FN or endothelial cells to recombinant human SDF-1α was examined in 48-well Transwell chemotaxis apparatus (5-μm pore filters, 6.5-mm diameter; Corning, N.Y.), as previously described (Zanin-Zhorov et al., 2003b). For transendothelial migration assays, 2×10^4 cells of HUVEC were layered on the filters and grown in 10% FCS M199 for 2 days before the performance of each assay. Then, HUVEC were stimulated with TNF-α (50 ng/ml) for 24 hr and washed.

DTH = DTH assay (adoptive transfer, oxazolone); assay type: in vivo, BALB/c mice; conditions: oxazolone-reactive lymph node cells exposed in vitro to 1 μg/ml for 1 hr; ear swelling 24 hr
Protocol: DTH assays. BALB/c mice (females; 1.5 months of age) were sensitized by painting of their shaved abdominal walls with Oxazolone (2%) emulsified in 100 μl of acetone/olive oil (Sigma-Aldrich). On day 5, mice were sacrificed, their draining (inguinal, mesenteric, and cervical) lymph nodes were collected, and a single cell suspension was prepared. The cells were treated with HSP60 (1 μg/ml; 1 hr; tissue culture conditions), washed, and injected (5×10^7 cells per mouse) i.v. into the tails of naive mice (at least 6 mice per group). Painting of the earlobes with oxazolone (10 μl of 0.5% in acetone/olive oil), which generates a DTH response, was performed immediately after cell inoculation. The area of the ears that was painted was measured before challenge and 24 hr later with a micrometer. Changes in earlobe thickness are indicative of DTH reactivity. All animal studies were performed in compliance with and were approved by laws and animal welfare guidelines of The Weizmann Institute of Science (IACUC).

SOCS3 = SOCS3 expression in mouse lymphocytes / T cells (immunoblot); assay type: cell-based; conditions: for SOCS3 expression: 1 ng/ml, 1 hr
From the text: Mice and mouse T cells. Female C57BL/6J were obtained from Harlan Olac (Bicester, U.K.). TLR2-knockout mice on the C57BL/6J background were kindly provided by Dr. S. Akira (Osaka University, Osaka, Japan). CD3^+ T cells were isolated by negative selection with anti-mouse antibody cocktail (Pan T cell kit; Miltenyi Biotec; CITY Germany). The labeled cells were then passed through separation columns (MidiMACS columns, Miltenyi Biotec). The purified cells (>97% T cells) were untreated or treated with HSP60 as described. Similarly, T cells were purified from the lymph nodes of BALB/c mice (females, 1.5 months of age).
Western blotting of T-cell lysates. T cells were incubated (24 hr, 37° C.) in starvation medium (RPMI medium without serum). Aliquots (5×10^6/sample) of the starved cells were preincubated (for various intervals) with different concentrations of HSP60 prior to exposure to SDF-1α (100 ng/ml, 10 min, 37° C., tissue culture conditions). These reactions were terminated by freezing the plates (−70° C., 10 min). The plates were thawed, and the cells solubilized by incubating (60 min, 4° C.) in lysis buffer [EDTA (0.5 mM), NaCL (150 mM), NaF (10 nM), Tris pH 7.5 (25 mM), Triton X-100 (1%), PMSF (200 pg/ml), and phosphatase inhibitor cocktail (1%)]. Lysates were cleared by centrifugation (30 min, 14×10^3 rpm, 4° C.), and the resulting supernatants analyzed for protein content. Sample buffer was added, the samples were boiled, and equal amounts of proteins were separated by 10% SDS-PAGE and transferred to nitrocellulose membranes. […] Phosphorylation levels of the 3-5 independent experiments were estimated by densitometry, and an average percentage of phosphorylation±SD was calculated as OD of pERK/tERK, or pPyk2/tPyk2, or pAKT/tAKT, pMLC/tMLC, or pSTAT3/tSTAT3×100%.

CD8^+ T cells = test: Co-culture of treated CD4+CD25+ T cells with CD8+ T cells; assay type: cell-based, human; conditions: 1% or more HSP60-treated CD4+CD25+ T cells; anti-CD3 24 hr
T-bet and GATA-3 = T-bet and GATA-3 expression in oxazolone-reactive mouse T cells; assay type: cell-based; conditions: 1 ng/ml for 2 hr
Protocol: Western blot analysis of T-cell nuclear extracts. Purified T cells (5×10^6) were preincubated with different concentrations of HSP60 for the indicated periods of time (37° C. in a 7% CO2, humidified atmosphere). […] T cells were lysed in 10 mM HEPES, 1.5 mM MgCl2, 1 mM dithiothreitol (DTT), 1 mM PMSF, 0.5% Nonidet P-40. The lysates were incubated on ice for 10 min and centrifuged at 2000 rpm for 10 min at 4° C. The supernatants (cytoplasmic extracts) were transferred and the pellet (nuclei) was suspended in buffer containing 30 mM HEPES, 450 mM NaCl, 25% Glycerol, 0.5 mM EDTA, 6 mM DTT, 12 mM MgCl2 1 mM PMSF, 10 μg/ml leupeptin, 10 μg/ml pepstatin, 1% phosphatase inhibitor cocktail, and the suspension was incubated on ice for 30 min. The lysates were cleared by centrifugation (30 min, 14×10^3 rpm, 4° C.), and the resulting supernatants analyzed for protein content. For NFATp analysis nuclear extracts were prepared with a NE-PER Nuclear and Cytoplasmic Extraction reagent (Pierce, Rockford, Ill.) according to the manufacturer's protocol. Sample buffer was then added and, after boiling, the samples, containing equal amounts of proteins, were separated on 10% SDS-PAGE gel and transferred to nitrocellulose membranes. […]

B1: HSP60: recombinant human heat shock protein 60 (StressGen Biotechnologies) (protein)
chain: AKDVKFGADARALMLQGVDLLADAVAVTMGPKGRTVIIEQSWGSPKVTKDGVTVAKSIDLKDKYKNIGAKLVQDVANNTNEEAGDGTTTATVLARSIAKEGFEKISKGANPVEIRRGVMLAVDAVIAELKKQSKPVTTPEEIAQVATISANGDKEIGNIISDAMKKVGRKGVITVKDGKTLNDELEIIEGMKFDRGYISPYFINTSKGQKCEFQDAYVLLSEKKISSIQSIVPALEIANAHRKPLVIIAEDVDGEALSTLVLNRLKVGLQVVAVKAPGFGDNRKNQLKDMAIATGGAVFGEEGLTLNLEDVQPHDLGKVGEVIVTKDDAMLLKGKGDKAQIEKRIQEIIEQLDVTTSEYEKEKLNERLAKLSDGVAVLKVGGTSDVEVNEKKDRVTDALNATRAAVEEGIVLGGGCALLRCIPALDSLTPANEDQKIGIEIIKRTLKIPAMTIAKNAGVEGSLIVEKIMQSSSEVGYDAMAGDFVNMVEKGIIDPTKVVRTALLDAAGVASLLTTAEVVVTEIPKEEKDPGMGAMGGMGGGMGGGMF
With B1 the “SDF-1α-induced T-cell chemotaxis through TNF-α-activated endothelial cells” value (human T cells) was “significant inhibition of T-cell chemotaxis toward SDF-1α”, the “SDF-1α-induced T-cell chemotaxis through fibronectin” value (human T cells; various concentrations) was “significant inhibition of T-cell chemotaxis toward SDF-1α” and the “inhibition of ability to adoptively transfer DTH” value (DTH) was 50%. For the same molecule, the “expression of SOCS3” value (SOCS3; BALB/c lymph node cells) was “induced the expression of SOCS3 in BALB/c lymph node cells”, the SOCS3 expression (SOCS3; T cells from TLR2-knockout mice) was “SOCS3 expression remained at the low levels of untreated cells” and the SOCS3 expression (SOCS3; wild type C57BL/6J-derived T cells) was “induced SOCS3 expression at levels similar to those induced by HSP60 in human T cells”. The “inhibition of IFN-γ or TNF-α secretion in co-culture with CD8+ T cells” value (CD8^+ T cells) was 3-4 fold, the GATA-3 expression (T-bet and GATA-3) was “up-regulation of GATA-3 expression” and the T-bet expression (T-bet and GATA-3) was “down-regulation of T-bet”.
